Test [1] concerns the target NgCAM, recombinant, expressed on the surface of COS-7 cells (chicken). Briefly: binding of protein-conjugated fluorescent microspheres.
Test [2] concerns the target axonin-1, recombinant, expressed on the surface of COS-7 cells (chicken) (UniProt P28685). The description is as above.

As to “NgCAM purified from chicken brain membranes, conjugated to Covaspheres (from UniProt Q03696 21-1266) (natural protein)”, the percent of expressing cells that bound Covaspheres in test [1] is 61%; in test [2], 15%.

B1: axonin-1 purified from the ocular vitreous fluid of chicken embryos, conjugated to Covaspheres (natural protein)
chain: QSGMRSYGPVFEEQPAHTLFPEGSAEEKVTLTCRARANPPATYRWKMNGTELKMGPDSRYRLVAGDLVISNPVKAKDAGSYQCVATNARGTVVSREASLRFGFLQEFSAEERDPVKITEGWGVMFTCSPPPHYPALSYRWLLNEFPNFIPADGRRFVSQTTGNLYIAKTEASDLGNYSCFATSHIDFITKSVFSKFSQLSLAAEDARQYAPSIKAKFPADTYALTGQMVTLECFAFGNPVPQIKWRKLDGSQTSKWLSSEPLLHIQNVDFEDEGTYECEAENIKGRDTYQGRIIIHAQPDWLDVITDTEADIGSDLRWSCVASGKPRPAVRWLRDGQPLASQNRIEVSGGELRFSKLVLEDSGMYQCVAENKHGTVYASAELTVQALAPDFRLNPVKRLIPAARSGKVIIPCQPRAAPKATVLWTKGTELLTNSSRVTITADGTLILQNISKSDEGKYTCFAENFMGKANSTGILSVRDATKITLAPSSADINVGENLTLQCHASHDPTMDLTFTWSLDDFPIDLDKSEGHYRRASVKEAVGDLAIVNAQLKHSGRYTCTAQTVVDSTSESATLTVRGPPGPPGGVVVRDIGDTTVQLSWSRGFDNHSPIARYSIEARTLLSNKWKQMRTNPVNIEGNAETAQVVNLIPWMDYEFRVLASNILGVGEPSLPSSKIRTKEAAPTVAPSGLGGGGGAPNELIINWTPTLRDYQNGDGFGYILSFRKKGTQGWLTARVPHAESLHYVYRNESIGPYTPFEVKIKAYNRKGEGPESLTAIVYSAEEEPKVAPFRVTAKAVLSSEMDVSWEPVEQGDMTGVLLGYEIRYWKDGDKEEAADRVRTAGLVTSAHVTGLNPNTKYHVSVRAYNRAGAGPPSPSTNITTTKPPPRRPPGNISWTLTGSTVTIKWDPVVAQADESAVTGYKMLYRQDSHSAPTLYLASKSRIDIPVPEDFTHAFVQIRVTGPGGDGTPAEVHIVRNSGTSMMVEDSVTRPVPHAAIITTNSLAMVALIRYLEL
As for B1, in test [1], the percent of expressing cells that bound Covaspheres was found to be 53%.

Source of the values: publication PMC2133975.
